Experimental data reported in patent US20250361296A1 (BIOCYTOGEN PHARMACEUTICALS BEIJING, published 2025).

T1: hSIGLEC15 protein captured in the epitope analysis of Example 4 (human, UniProt Q6ZMC9 20-263, limits assumed)
T1 sequence: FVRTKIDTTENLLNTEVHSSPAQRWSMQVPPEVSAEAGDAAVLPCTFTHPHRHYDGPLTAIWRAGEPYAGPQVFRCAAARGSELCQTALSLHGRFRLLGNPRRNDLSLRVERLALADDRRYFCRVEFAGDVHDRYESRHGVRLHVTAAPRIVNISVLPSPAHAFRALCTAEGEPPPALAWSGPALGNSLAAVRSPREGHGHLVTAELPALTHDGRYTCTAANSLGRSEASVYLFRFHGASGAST

T2: human SIGLEC2 on CHO-S-hSIGLEC2 cells (human, UniProt P20273 20-687)
T2 sequence: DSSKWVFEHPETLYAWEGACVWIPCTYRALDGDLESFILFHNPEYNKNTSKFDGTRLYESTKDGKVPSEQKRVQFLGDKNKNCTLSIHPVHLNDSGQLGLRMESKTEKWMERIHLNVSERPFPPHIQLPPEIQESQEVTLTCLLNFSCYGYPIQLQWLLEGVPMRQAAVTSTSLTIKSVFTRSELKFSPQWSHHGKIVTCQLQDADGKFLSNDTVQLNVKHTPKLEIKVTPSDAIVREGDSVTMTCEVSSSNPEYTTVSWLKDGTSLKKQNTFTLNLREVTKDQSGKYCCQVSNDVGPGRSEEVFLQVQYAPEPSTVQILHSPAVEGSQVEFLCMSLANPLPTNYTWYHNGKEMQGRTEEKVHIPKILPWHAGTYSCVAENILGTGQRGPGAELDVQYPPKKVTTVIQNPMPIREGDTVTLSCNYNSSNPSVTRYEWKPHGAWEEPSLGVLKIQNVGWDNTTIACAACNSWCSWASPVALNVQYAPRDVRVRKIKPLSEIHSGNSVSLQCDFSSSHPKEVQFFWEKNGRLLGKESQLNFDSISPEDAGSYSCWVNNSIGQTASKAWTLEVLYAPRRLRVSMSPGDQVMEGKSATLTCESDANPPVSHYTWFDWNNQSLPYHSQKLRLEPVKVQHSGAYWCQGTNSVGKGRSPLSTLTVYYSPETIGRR


Assays:
[1] = target: T1, hSIGLEC15 protein captured in the …; assay: BLI pairwise binning on captured hSIGLEC15, 200 nM each antibody; competitor 5G12
Description: (§1) Relative positions of target protein epitope between a pair of purified anti-SIGLEC15 antibodies were analyzed by Biolayer Interferometry (BLI) using ForteBio Octet system at 30° C. A total of 4 purified antibodies were used: 5G12, 10A7, 10C9 and 23F4.
(§2) 1×HBS-EP+ buffer (10 mM 4-(2-hydroxyethyl)-1-piperazineethanesulfonic acid (HEPES), 150 mM NaCl, 3 mM ethylenediaminetetraacetic acid (EDTA) and 0.05% P20, pH7.4) diluted from HBS-EP+ buffer (10×) was used as the running buffer throughout the experiment. About 100 RU of hSIGLEC15 protein was captured at a flow rate of 10 μL/min, and 200 nM of antibody was injected at a flow rate of 30 μL/min to bind the ligand. Another antibody was injected under the same conditions to determine whether the binding of different antibodies interfered with each other. The binding time was 300 s for each antibody.
(§3) The binding value of each antibody was obtained using Data Analysis HT 12.0. To quantify the interference of one antibody binding to another, a binding ratio was calculated to compare each pair of antibodies. The binding ratio is defined as the binding value of the second antibody (analyte 2), divided by the binding value of the first antibody (analyte 1). […] In general, antibody pairs that interfere with each other have the same or overlapping epitopes.

[2] = target: T1, hSIGLEC15 protein captured in the …; assay: BLI pairwise binning on captured hSIGLEC15, 200 nM each antibody; competitor 10C9
Description: as §1, §2, §3

[3] = target: T2, human SIGLEC2 on CHO-S-hSIGLEC2 cells; assay: flow cytometry, CHO-S cells expressing the target
Description: CHO-S-hSIGLEC15 cells, CHO-S-mSIGLEC15 cells, CHO-S-fasSIGLEC15 cells or CHO-S-dSIGLEC15 cells were transferred to a 96-well plate at a density of 5×10⁴ cells/well respectively. Serially diluted sample anti-SIGLEC15 antibodies were added to the 96-well plate, and incubated at 4° C. for 30 min. Then, the cells were incubated with the secondary antibody anti-hIgG-Fc-Alex Flour 647 (RL1-H) (Jackson ImmunoResearch Laboratories, Inc., 109-606-170) at 4° C. in the dark for 15 minutes before flow cytometry analysis.
Another similar experiment was performed to determine whether the anti-SIGLEC15 antibodies can bind with other SIGLEC family proteins. CHO-S-hSIGLEC1 cells (expressing hSIGLEC1, SEQ ID NO: 49)), CHO-S-hSIGLEC2 cells (expressing hSIGLEC2, SEQ ID NO: 50), CHO-S-hSIGLEC4 cells (expressing hSIGLEC4, SEQ ID NO: 51), CHO-S-hSIGLEC5 cells (expressing hSIGLEC5, SEQ ID NO: 52), CHO-S-hSIGLEC6 cells (expressing hSIGLEC6, SEQ ID NO: 53), CHO-S-hSIGLEC7 cells (expressing hSIGLEC7, SEQ ID NO: 54), CHO-S-hSIGLEC8 cells (expressing hSIGLEC8, SEQ ID NO: 55), CHO-S-hSIGLEC9 cells (expressing hSIGLEC9, SEQ ID NO: 56), CHO-S-hSIGLEC10 cells (expressing hSIGLEC10, SEQ ID NO: 57), CHO-S-hSIGLEC11 cells (expressing hSIGLEC11, SEQ ID NO: 58), CHO-S-hSIGLEC12 cells (expressing hSIGLEC12, SEQ ID NO: 59), CHO-S-hSIGLEC14 cells (expressing hSIGLEC14, SEQ ID NO: 60) or CHO-S-hSIGLEC16 cells (expressing hSIGLEC16, SEQ ID NO: 61) were used.

[4] = target: T1, hSIGLEC15 protein captured in the …; assay: BLI pairwise binning on captured hSIGLEC15, 200 nM each antibody; competitor 23F4
Description: as §1, §2, §3

binding ratio [1]	binding ratio [2]	Percentage of Positive Cells [3]	binding result [3]	binding ratio [4]	Binder
0.48	0.62	1.8%	no binding	0.07	anti-SIGLEC15 antibody 23F4 (antibody, human IgG1, V domains shown) VH: QVQLQQWGAGLLKPSETLSLTCAVYGGSFSGYFWSWIRQPPGKGLEWIGEINHSGSTNYNPSLKSRVTLSVDTSKNQFSLKLSSVTAADTAVYYCAREGDSSSWGNWFDPWGQGTLVTVSS VL: EIVLTQSPGTLSLSPGERATLSCRASQSVSSSYLAWYQQKPGQAPRFLIYGASSRATGIPDRFSGSGSGTDFTLTISRLEPEDFAVYYCQQFGNSPLTFGGGTKVEIK
0.2	0.16	0%	no binding	0.43	anti-SIGLEC15 antibody 10A7 (antibody, human IgG1, V domains shown) VH: EVQLVQSGGGLVQPGGSLRLSCAASGFTFSNYEMNWVRQAPGKGLEWISYISNSGSTIYYADSVKGRFTISRDDAKNSLYLQMNSLRAEDTAVYYCAREDYDSSGYYWFDPWGQGTPVTVSS VL: DIQLTQSPSSVSASVGDRVTITCRASQGISSWLAWYQQKPGKAPKLLIYAASSLQSGVPSRFSGSGSGTDFTLTINSLQPEDFATYYCQQTNSFPLTFGGGTKVEIK
0.23	0.11	0.3%	no binding	0.72	anti-SIGLEC15 antibody 10C9 (antibody, human IgG1, V domains shown) VH: QVQLVQSGAEVKKPGATVKVSCKASGYTFTNYGFSWVRQAPGQGLEWMGWINTYNDNTNYAQKFQGRVTMTTDTSTSTAYMELRSLRSDDTAVYYCARDGLWFGELPHYFDYWGQGTLVTVSS VL: DIQLTQSPLSSPVTLGQPASISCRSSQSLVNSDGETFLSWLQQRPGQPPRLLIYKISNRFSGVPDRFSGSGAGTDFTLKISRVEAEDVGVYYCMQATQFPHTFGQGTKLEIK
